According to patent publication US20230338477A1 (published 2023):

Biological target: T1, human transferrin receptor 1 (hTfR) (human, UniProt P02786 89-760, limits assumed)
T1 construct: also called TFRC; transferrin receptor protein 1
Experiment: in vitro binding screen, method not described

T1 sequence (P02786 89-760 limits assumed): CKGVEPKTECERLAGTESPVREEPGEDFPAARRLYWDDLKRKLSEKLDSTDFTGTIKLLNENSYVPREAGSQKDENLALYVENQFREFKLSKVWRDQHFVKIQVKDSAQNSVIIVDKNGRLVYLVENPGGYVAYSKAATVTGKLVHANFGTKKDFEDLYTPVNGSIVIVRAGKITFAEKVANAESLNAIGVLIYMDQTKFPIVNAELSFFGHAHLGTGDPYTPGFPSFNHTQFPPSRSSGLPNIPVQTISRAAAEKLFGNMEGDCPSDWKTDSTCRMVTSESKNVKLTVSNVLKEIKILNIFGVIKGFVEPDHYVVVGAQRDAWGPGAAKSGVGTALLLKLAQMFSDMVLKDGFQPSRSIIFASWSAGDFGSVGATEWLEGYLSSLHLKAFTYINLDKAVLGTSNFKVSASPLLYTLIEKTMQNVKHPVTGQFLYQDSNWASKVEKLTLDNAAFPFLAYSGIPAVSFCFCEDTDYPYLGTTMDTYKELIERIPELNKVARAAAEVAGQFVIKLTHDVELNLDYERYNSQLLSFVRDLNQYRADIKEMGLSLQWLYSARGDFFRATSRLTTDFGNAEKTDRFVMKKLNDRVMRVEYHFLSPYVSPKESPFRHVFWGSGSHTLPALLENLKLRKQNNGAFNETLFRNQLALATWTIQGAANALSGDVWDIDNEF

| Binder | binding result |
| --- | --- |
| 31874B (antibody, V domains shown, Anti-hTfR antibody of the initial screen; only variable domains are tied to it) VH: EVQLVESGGGLVQPGGSLRLSCAASGFAFSSYAMTWVRQAPGKGLEWVSVISGTGGSTYYADSVKGRFTISRDNSKNTLYLQMNSLRAEDTAVYYCAKGGAARRMEYFQYWGQGTLVTVSS VL: DIQMTQSPSSLSASVGDRVTITCRASQGISNYLAWYQQKPGKVPNLLIYAASTLQSGVPSRFSGSGSGTDFTLTISSLQPEDVATYYCQKYNSAPLTFGGGTKVEIK | binds |
| 69263 (antibody, V domains shown, Anti-hTfR antibody of the initial screen; only variable domains are tied to it) VH: EVQLVESGGGLVQPGRSLRLSCAVSGFTFDDYAMHWVRQAPGKGLEWVSGISWNSGTRGYADSVKGRFTISRDNAKNSLYLQMNSLRGEDTALYYCVKDITISPNYYGMDVWGQGTTVTVSS VL: DIQMTQSPSSLSASVGDRVTITCRASQDISHYSAWYQQKPGKLPNLLIYAASTLQSGVPSRFSGSGSGTDFSLTTSSLQPEDVATYYCQKYNSVPLTFGGGTKVEIK | binds |
| 31863B (antibody, V domains shown, Anti-hTfR antibody of the initial screen; only variable domains are tied to it) VH: EVQLVESGGGLVQPGGSLRLSCAASGFTFNSYAMTWVRQAPGKGLEWVSFIGGSTGNTYYAGSVKGRFTISSDNSKKTLYLQMNSLRAEDTAVYYCAKGGAARRMEYFQHWGQGTLVTVSS VL: DIQMTQSPSSLSASIGDRVTITCRASQGISNYLAWYQQKPGKVPKLLIYAASTLQSGVPSRFSGSGSGTDFTLTISSLQPEDVATYYCQNHNSVPLTFGGGTKVEIK | binds |
| 12848B (antibody, V domains shown, Anti-hTfR antibody of the initial screen; only variable domains are tied to it) VH: EVQLVESGGGLVQPGRSLTLSCAASGFTFDNFGMHWVRQGPGKGLEWVSGLTWNSGVIGYADSVKGRFTISRDNAKNSLYLQMNSLRPEDTALYYCAKDIRNYGPFDYWGQGTLVTVSS VL: not shown | binds |
| 12839B (antibody, V domains shown, Anti-hTfR antibody of the initial screen; only variable domains are tied to it) VH: QVQLVESGGGVVQPGRSLRLSCAASGFPFSNYVMYWVRQAPGKGLEWVALIFFDGKKNYHADSVKGRFTITRDNSKNMLYLQMNSLRPEDAAVYYCAKIHCPNGVCYKGYYGMDVWGQGTTVTVSS VL: not shown | binds |
| 12795B (antibody, V domains shown, Anti-hTfR antibody of the initial screen; only variable domains are tied to it) VH: EVQLVESGGGLVQPGGSLRLSCATSGFTFTSYDMKWVRQAPGLGLEWVSAISGSGGNTYYADSVKGRFTISRDNSRNTLYLQMNSLRAEDTAVYYCTRSHDFGAFDYFDYWGQGTLVTVSS VL: DIQMTQSPSSLSASVGDRVTITCRASQGIRDHFGWYQQKPGKAPKRLIYAASSLHSGVPSRFSGSGSGTEFTLTISSLQPEDFATYYCLQYDTYPLTFGGGTKVEIK | binds |
| 12801B (antibody, V domains shown, Anti-hTfR antibody of the initial screen; only variable domains are tied to it) VH: EVQLLESGGALVQPGGSLRLSCAASGFTFTSYAMHWVRQAPGKGLEWVSSIRGSGGGTYSADSVKGRFTISRDNSRDTLYLQMNSVRAEDTAVYYCARSHDYGAFDFFDYWGQGTLVTVSS VL: DIQMTQSPSSLSASVGDRVTITCRASQGIRTDLGWYQQKPGKAPKRLIYAASSLQSGVPSRFSGSGSGTEFTLTISSLRPEDFATFYCLQYNSYPLTFGGGTKVEIK | binds |
| 12816B (antibody, V domains shown, Anti-hTfR antibody of the initial screen; only variable domains are tied to it) VH: QVQLVESGGGLVKPGGSLRLSCAASGFTFSDYYMNWIRQAPGKGLEWVSYISSSGTTIYYADSVKGRFTISRDNAKKSLYLEMNSLRAEDTAVYYCAREGYGNDYYYYGIDVWGQGTTVTVSS VL: not shown | binds |
| 69261 (antibody, V domains shown, Anti-hTfR antibody of the initial screen; only variable domains are tied to it) VH: QVQLVESGGGLVKPGGSLRLSCAASGFTFSVYYMNWIRQAPGKGLEWVSYISSSGSTIYYADSVKGRFTISRDNAKNSLYLQMNSLRAEDTAVYYCGREGYSGTYSYYGMDVWGQGTTVTVSS VL: not shown | binds |
| 12798B (antibody, V domains shown, Anti-hTfR antibody of the initial screen; only variable domains are tied to it) VH: EVQLVESGGDLVQPGRSLRLSCAASGFTFDDYAMHWVRQAPGKGLEWVSGISWNSATRVYADSVKGRFTISRDNAKNFLYLQMNSLRSEDTALYHCAKDMDISLGYYGLDVWGQGTTVTVSS VL: not shown | binds |
| 69329 (antibody, V domains shown, Anti-hTfR antibody of the initial screen; only variable domains are tied to it) VH: EVQLVESGGGLVQPGGSLRLSCAASGFTFSNYWMTWVRQAPGKGLEWVANIKEDGSEKDYVDSVKGRFTISRDNAKNSLYLQMNSLRGEDTAVYYCARDGEQLVDYYYYYVMDVWGQGTTVTVSS VL: DIQMTQSPSSVSASVGDRVTITCRASQGISSWLAWYQQKPGKAPKLLIYAASSLQSGVPSRFSGSGSGTDFTLTISSLQPEDFATYYCQKANSFPYTFGQGTKLEIK | binds |
| 12812B (antibody, V domains shown, Anti-hTfR antibody of the initial screen; only variable domains are tied to it) VH: QVQLVQSGAEVKKPGSSVRVSCKASRGTFSSYAISWVRQAPGQGLEWMGGIIPIFGTANYAQKFLARVTITADESTSTAYMELSSLRSEDTAVYYCAREKGWNYFDYWGQGTLVTVSS VL: DIQMTQSPPSVSASVGDRVTITCRASQGISSWLAWYQQKPGKAPKLLIYAASSLQSGVPSRFSGSGSGTDFTLTISSLQPEDFATYYCQQANSFPRTFGQGTKVEIK | binds |
| 12799B (antibody, V domains shown, Anti-hTfR antibody of the initial screen; only variable domains are tied to it) VH: QITLKESGPTLVKPTQTLTLTCTFSGFSLSTSGVGVVWIRQPPGKALEWLALIYWNDHKRYSPSLGSRLTITKDTSKNQVVLTMTNMDPVDTATYYCAHYSGSYSYYYYGLDVWGQGTTVTVSS VL: DIQMTQSPSSVSASVGDRVTITCRASQGIASWLAWYQQKPGKAPELLIYAASSLQGGVPSRFSGSGSGTDFTLTISSLQPEDFAIYYCQQANYFPWTFGQGTKVEIK | binds |
| 69307 (antibody, V domains shown, Anti-hTfR antibody of the initial screen; only variable domains are tied to it) VH: EVQLVESGGGLVQPGGSLRLSCTASGFTFSNYWMTWVRQAPGKGLEWVANIKEDGSEKEYVDSVKGRFTISRDNAKNSLYLQMNSLRGEDTAVYYCARDGEQLVDYYYYYVMDVWGQGTTVTVSS VL: DIQMTQSPSSVSASVGDRVTITCRASQGISSWLAWYQQKPGKAPKLLIYAASSLQSGVPSRFSGSGSGTDFTLTISSLQPEDFATYYCQKADSLPYAFGQGTKLEIK | binds |
| 12847B (antibody, V domains shown, Anti-hTfR antibody of the initial screen; only variable domains are tied to it) VH: EVQLVESGGGLVQPGRSLRLSCAASGFTFDDYAMNWVRQAPGKGLEWVSGISWSSGSMDYADSVKGRFTISRDNAKNSLYLQMNSLRTEDTALYYCAKAREVGDYYGMDVWGQGTTVTVSS VL: not shown | binds |
| 12850B (antibody, V domains shown, Anti-hTfR antibody of the initial screen; only variable domains are tied to it) VH: QVQLVQSGAEVKKPGSSVKVSCKASGGTFNTYAITWVRQAPGQGLEWMGGIIPISGIAEYAQKFQGRVTITTDDSSTTAYMELNSLRSEDTAVYYCASWNYALYYFYGMDVWGRGTTVTVSS VL: not shown | binds |

Next, values leading:

| binding result | Binder |
| --- | --- |
| binds | 12835B (antibody, V domains shown, Anti-hTfR antibody of the initial screen; only variable domains are tied to it) VH: EVQLVESGGGLIQPGGSLRLSCEASGFTFRNYEMNWVRQAPGKGLEWVSYISSSGNMKDYAESVKGRFTISRDNVKNSLQLQMNSLRVEDTAVYYCARDEFPYGMDVWGQGTTVTVSS VL: not shown |
| binds | 12845B (antibody, V domains shown, Anti-hTfR antibody of the initial screen; only variable domains are tied to it) VH: EVQLVESGGGLVQPGGSLRLSCAASGFTVSNYEMNWVRQAPGKGLEWVSYISSSTSNIYYADSVKGRFTISRDNAENSLYLQMNSLRVEDTAVYYCVRDGIVVVPVGRGYYYYGLDVWGQGTTVTVSS VL: not shown |
| binds | 12834B (antibody, V domains shown, Anti-hTfR antibody of the initial screen; only variable domains are tied to it) VH: QVQLVQSGAEVKKPGASVKVSCKASGYTFTSYGISWVRQAPGQGLEWMGWISVYHGNTNYAQKFQGRVTMTTDTSTSTAYMELRSLRSDDTAVYYCAREGYYDFWSGYYPFDYWGQGTLVTVSS VL: not shown |
| binds | 12833B (antibody, V domains shown, Anti-hTfR antibody of the initial screen; only variable domains are tied to it) VH: QVQLVESGGGVVQPGRSLRLSCAASGFTFSSFGMHWVRQAPGKGLEWVIFISYDGSDKYYADSVKGRFAISRDSSKNTLYLQMNSLRAEDTAVYYCAKENGILTDSYGMDVWGQGTTVTVSS VL: not shown |
| binds | 69305 (antibody, V domains shown, Anti-hTfR antibody of the initial screen; only variable domains are tied to it) VH: QVQLVESGGGVVQPGRSLRLSCAASGFTFSSYGMHWVRQAPGKGLEWVAVIWYDGSNKYYADSVKGRFTISRDISKNTLYLQMNSLRAEDTAVYYCAGQLDLFFDYWGQGTLVTVSS VL: DIQMTQSPSSLSASVGDRVTITCRASQSIDRYLNWYRQKPGKAPKLLIYTTSSLQSGVPSRFSGSGSGTDFTLTLSSLQPEDFATYYCQQSYSPPLTFGGGTKVEIK |
| binds | 12808B (antibody, V domains shown, Anti-hTfR antibody of the initial screen; only variable domains are tied to it) VH: QLQLQESGPGLVKPSETLSLTCTVSGESISSNTYYWGWIRQPPGKGLEWIGSIDYSGTTNYNPSLKSRVTISVDTSRNHFSLRLRSVTAADTAVYYCAREWGNYGYYYGMDVWGQGTTVTVSS VL: DIQMTQSPSSLSASVGDRVTINCRASQGIRNDLGWYQQKPGKAPKRLIYAASSLQSGVPLRFSGSGSGTEFTLTINNLQPEDFATYYCLSHNSYPWTFGQGTKVEIK |
| binds | 12841B (antibody, V domains shown, Anti-hTfR antibody of the initial screen; only variable domains are tied to it) VH: EVQLVESGGGLVQPGGSLRLSCAASGFTFSNYWMNWVRQAPGKGLEWVANIKEDGGKKLYVDSVKGRFTISRDNAKNSLFLQMNSLRAEDTAVYYCAREDTTLVVDYYYYGMDVWGQGTTVTVSS VL: not shown |
| binds | 12802B (antibody, V domains shown, Anti-hTfR antibody of the initial screen; only variable domains are tied to it) VH: QVQLVESGGGLVKPGGSLRLSCAASGFTFSDYFMSWIRQAPGKGLEWVSYISSTGSTINYADSVKGRFTISRDNVKNSLYLQMTSLRVEDTAVYYCTRDNWNYEYWGQGTLVTVSS VL: EIVMTQSPATLSVSPGERATLSCRASQSVSINLAWYQQKPGQAPRLLIFVASTRATGIPARFSGSGSGTEFTLTISSLQSEDFATYYCQQYDIWPYTFGQGTKLEIK |
| binds | 12844B (antibody, V domains shown, Anti-hTfR antibody of the initial screen; only variable domains are tied to it) VH: EVQLVESGGSVVRPGGSLRLSCEASGFTFDDYGMSWVRQDPGKGLEWVSGINWNGDRTNYADSVKGRFIISRDNAKNSVYLQMNSLRAEDSALYHCARDQGLGVAATLDYWGQGTLVTVSS VL: not shown |
| binds | 12843B (antibody, V domains shown, Anti-hTfR antibody of the initial screen; only variable domains are tied to it) VH: EVQLVESGGGLVQPGGSLRLSCAASGFTFNIFEMNWVRQAPGKGLEWISYISSRGTTTYYADSVRGRFTISRDNAKNSLYLQMNSLRAEDTAVYYCARDYEATIPFDFWGQGTLVTVSS VL: not shown |
| binds | 69323 (antibody, V domains shown, Anti-hTfR antibody of the initial screen; only variable domains are tied to it) VH: EVQLVESGGGLVQPGRSLRLSCAASGFTFDDYAMHWVRQAPGKGLEWVSGISWNSGYIGYADSVKGRFTISRDNAENSLHLQMNSLRAEDTALYYCARGGSTLVRGVKGGYYGMDVWGQGTTVTVSS VL: not shown |
